The test system of data set [1] is HeLa Kyoto. Kind of data set: solubility in G1/S (NP-40 vs SDS abundance) (log2 ratio); higher = more soluble. The note with it: cell cycle stage: G1/S.
For data set [2], the system named is HeLa Kyoto. Kind of data set: melting temperature (median over replicates), in situ; higher = more thermally stable.
For data set [3], the system named is HeLa Kyoto. Kind of data set: solubility change mitosis vs G1/S (difference of NP-40 vs SDS log2 ratios) (log2 ratio difference); higher = more soluble in mitosis.
Data set [4] relates to HeLa Kyoto. Kind of data set: thermal stability score vs G1/S (z-score of summed log2 fold changes over temperatures); higher = more thermally stable than in G1/S.
The mark [5] stands for this setting: cell cycle stage: early G1 (4.5 h after nocodazole release).

The results in this text go back to the supplement of paper PMC5998384.
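For melting temperature (median over replicates), in situ in this document: HeLa Kyoto cells synchronized by double thymidine or nocodazole block, proteins quantified by TMT10plex mass spectrometry, three independent biological replicates.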
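For solubility change mitosis vs G1/S (difference of NP-40 vs SDS log2 ratios) in this document: synchronized HeLa Kyoto cells (double thymidine block for G1/S, nocodazole release for mitosis), protein amounts in NP-40 versus SDS lysates quantified by mass spectrometry, three biological replicates.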
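For solubility in G1/S (NP-40 vs SDS abundance) in this document: HeLa Kyoto cells arrested at G1/S by double thymidine block, proteins quantified by TMT10plex mass spectrometry in mild NP-40 versus SDS extracts, three biological replicates.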
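For thermal stability score vs G1/S (z-score of summed log2 fold changes over temperatures) in this document: synchronized HeLa Kyoto cells, proteins quantified by TMT10plex mass spectrometry, three biological replicates, mitosis taken 0.5 h after nocodazole release, G1/S directly after double thymidine block.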

On to “MSNPFAHLAEPLDPVQPGKKFFNLNKLEDSRYGRLPFSIRVLLEAAIRNCDEFLVKKQDIENILHWNVTQHKNIEVPFKPARVILQDFTGVPAVVDFAAMRDAVKKLGGDPEKINPVCPADLVIDHSIQVDFNRRADSLQKNQDLEFERNRERFEFLKWGSQAFHNMRIIPPGSGIIHQVNLEYLARVVFDQDGYYYPDSLVGTDSHTTMIDGLGILGWGVGGIEAEAVMLGQPISMVLPQVIGYRLMGKPHPLVTSTDIVLTITKHLRQVGVVGKFVEFFGPGVAQLSIADRATIANMCPEYGATAAFFPVDEVSITYLVQTGRDEEKLKYIKKYLQAVGMFRDFNDPSQDPDFTQVVELDLKTVVPCCSGPKRPQDKVAVSDMKKDFESCLGAKQGFKGFQVAPEHHNDHKTFIYDNTEFTLAHGSVVIAAITSCTNTSNPSVMLGAGLLAKKAVDAGLNVMPYIKTSLSPGSGVVTYYLQESGVMPYLSQLGFDVVGYGCMTCIGNSGPLPEPVVEAITQGDLVAVGVLSGNRNFEGRVHPNTRANYLASPPLVIAYAIAGTIRIDFEKEPLGVNAKGQQVFLKDIWPTRDEIQAVERQYVIPGMFKEVYQKIETVNESWNALATPSDKLFFWNSKSTYIKSPPFFENLTLDLQPPKSIVDAYVLLNLGDSVTTDHISPAGNIARNSPAARYLTNRGLTPREFNSYGSRRGNDAVMARGTFANIRLLNRFLNKQAPQTIHLPSGEILDVFDAAERYQQAGLPLIVLAGKEYGAGSSRDWAAKGPFLLGIKAVLAESYERIHRSNLVGMGVIPLEYLPGENADALGLTGQERYTIIIPENLKPQMKVQVKLDTGKTFQAVMRFDTDVELTYFLNGGILNYMIRKMAK [ACO1]”, for which the “solubility in G1/S (log2)” value in data set [1] is -0.0477. The melting temperature in data set [2] (cell cycle stage: G1/S) stood at 54 °C; in data set [2] (cell cycle stage: mitosis), 53.1 °C. For the same sequence, in data set [3], the “solubility change mitosis (log2)” value was -0.178. Moreover, the figures for the thermal stability score in data set [4] (setting [5]) and in data set [4] (cell cycle stage: mitosis) were -1.5 and -0.466, respectively.

In the case of “MSGQPPPPPPQQQQQQQQLSPPPPAALAPVSGVVLPAPPAVSAGSSPAGSPGGGAGGEGLGAAAAALLLHPPPPPPPATAAPPPPPPPPPPPASAAAPASGPPAPPGLAAGPGPAGGAPTPALVAGSSAAAPFPHGDSALNEQEKELQRRLKRLYPAVDEQETPLPRSWSPKDKFSYIGLSQNNLRVHYKGHGKTPKDAASVRATHPIPAACGIYYFEVKIVSKGRDGYMGIGLSAQGVNMNRLPGWDKHSYGYHGDDGHSFCSSGTGQPYGPTFTTGDVIGCCVNLINNTCFYTKNGHSLGIAFTDLPPNLYPTVGLQTPGEVVDANFGQHPFVFDIEDYMREWRTKIQAQIDRFPIGDREGEWQTMIQKMVSSYLVHHGYCATAEAFARSTDQTVLEELASIKNRQRIQKLVLAGRMGEAIETTQQLYPSLLERNPNLLFTLKVRQFIEMVNGTDSEVRCLGGRSPKSQDSYPVSPRPFSSPSMSPSHGMNIHNLASGKGSTAHFSGFESCSNGVISNKAHQSYCHSNKHQSSNLNVPELNSINMSRSQQVNNFTSNDVDMETDHYSNGVGETSSNGFLNGSSKHDHEMEDCDTEMEVDSSQLRRQLCGGSQAAIERMIHFGRELQAMSEQLRRDCGKNTANKKMLKDAFSLLAYSDPWNSPVGNQLDPIQREPVCSALNSAILETHNLPKQPPLALAMGQATQCLGLMARSGIGSCAFATVEDYLH [RANBP9]”, in data set [1], the “solubility in G1/S (log2)” value turned out to be 0.115. Moreover, the melting temperature was found to be 51.6 °C in data set [2] (cell cycle stage: G1/S) and 51.1 °C in data set [2] (cell cycle stage: mitosis). Besides, in data set [3], the “solubility change mitosis (log2)” value is -0.126. The thermal stability score was -0.277 in data set [4] (setting [5]) and -0.378 in data set [4] (cell cycle stage: mitosis).

Turning to “MRGEQGAAGARVLQFTNCRILRGGKLLREDLWVRGGRILDPEKLFFEERRVADERRDCGGRILAPGFIDVQINGGFGVDFSQATEDVGSGVALVARRILSHGVTSFCPTLVTSPPEVYHKVVPQIPVKSGGPHGAGVLGLHLEGPFISREKRGAHPEAHLRSFEADAFQDLLATYGPLDNVRIVTLAPELGRSHEVIRALTARGICVSLGHSVADLRAAEDAVWSGATFITHLFNAMLPFHHRDPGIVGLLTSDRLPAGRCIFYGMIADGTHTNPAALRIAHRAHPQGLVLVTDAIPALGLGNGRHTLGQQEVEVDGLTAYVAGTKTLSGSIAPMDVCVRHFLQATGCSMESALEAASLHPAQLLGLEKSKGTLDFGADADFVVLDDSLHVQATYISGELVWQADAARQ [AMDHD2]”, in data set [1], the “solubility in G1/S (log2)” value was -0.0483. The figures for the melting temperature in data set [2] (cell cycle stage: G1/S) and in data set [2] (cell cycle stage: mitosis) were 55.1 °C and 54.3 °C, respectively. The “solubility change mitosis (log2)” value in data set [3] was -0.0923. Moreover, the thermal stability score in data set [4] (setting [5]) was -1.01; in data set [4] (cell cycle stage: mitosis), -2.12.

With “MAASEVAGVVANAPSPPESSSLCASKSDEGLPDGLSTKDSAQKQKNSPLLSVSSQTITKENNRNVHLEHSEQNPGSSAGDTSAAHQVVLGENLIATALCLSGSGSQSDLKDVASTAGEEGDTSLRESLHPVTRSLKAGCHTKQLASRNCSEEKSPQTSILKEGNRDTSLDFRPVVSPANGVEGVRVDQDDDQDSSSLKLSQNIAVQTDFKTADSEVNTDQDIEKNLDKMMTERTLLKERYQEVLDKQRQVENQLQVQLKQLQQRREEEMKNHQEILKAIQDVTIKREETKKKIEKEKKEFLQKEQDLKAEIEKLCEKGRREVWEMELDRLKNQDGEINRNIMEETERAWKAEILSLESRKELLVLKLEEAEKEAELHLTYLKSTPPTLETVRSKQEWETRLNGVRIMKKNVRDQFNSHIQLVRNGAKLSSLPQIPTPTLPPPPSETDFMLQVFQPSPSLAPRMPFSIGQVTMPMVMPSADPRSLSFPILNPALSQPSQPSSPLPGSHGRNSPGLGSLVSPHGPHMPPAASIPPPPGLGGVKASAETPRPQPVDKLEKILEKLLTRFPQCNKAQMTNILQQIKTARTTMAGLTMEELIQLVAARLAEHERVAASTQPLGRIRALFPAPLAQISTPMFLPSAQVSYPGRSSHAPATCKLCLMCQKLVQPSELHPMACTHVLHKECIKFWAQTNTNDTCPFCPTLK [RNF214]”, the “solubility in G1/S (log2)” value in data set [1] came out at 0.486. Moreover, the melting temperature in data set [2] (cell cycle stage: G1/S) is 49.8 °C; in data set [2] (cell cycle stage: mitosis), 51.5 °C. Further, the “solubility change mitosis (log2)” value in data set [3] was -0.0773. Moreover, the thermal stability score was -0.221 in data set [4] (setting [5]) and -0.95 in data set [4] (cell cycle stage: mitosis).

In the case of “MMPMFLTVYLSNNEQHFTEVPVTPETICRDVVDLCKEPGESDCHLAEVWCGSERPVADNERMFDVLQRFGSQRNEVRFFLRHERPPGRDIVSGPRSQDPSLKRNGVKVPGEYRRKENGVNSPRMDLTLAELQEMASRQQQQIEAQQQLLATKEQRLKFLKQQDQRQQQQVAEQEKLKRLKEIAENQEAKLKKVRALKGHVEQKRLSNGKLVEEIEQMNNLFQQKQRELVLAVSKVEELTRQLEMLKNGRIDSHHDNQSAVAELDRLYKELQLRNKLNQEQNAKLQQQRECLNKRNSEVAVMDKRVNELRDRLWKKKAALQQKENLPVSSDGNLPQQAASAPSRVAAVGPYIQSSTMPRMPSRPELLVKPALPDGSLVIQASEGPMKIQTLPNMRSGAASQTKGSKIHPVGPDWSPSNADLFPSQGSASVPQSTGNALDQVDDGEVPLREKEKKVRPFSMFDAVDQSNAPPSFGTLRKNQSSEDILRDAQVANKNVAKVPPPVPTKPKQINLPYFGQTNQPPSDIKPDGSSQQLSTVVPSMGTKPKPAGQQPRVLLSPSIPSVGQDQTLSPGSKQESPPAAAVRPFTPQPSKDTLLPPFRKPQTVAASSIYSMYTQQQAPGKNFQQAVQSALTKTHTRGPHFSSVYGKPVIAAAQNQQQHPENIYSNSQGKPGSPEPETEPVSSVQENHENERIPRPLSPTKLLPFLSNPYRNQSDADLEALRKKLSNAPRPLKKRSSITEPEGPNGPNIQKLLYQRTTIAAMETISVPSYPSKSASVTASSESPVEIQNPYLHVEPEKEVVSLVPESLSPEDVGNASTENSDMPAPSPGLDYEPEGVPDNSPNLQNNPEEPNPEAPHVLDVYLEEYPPYPPPPYPSGEPEGPGEDSVSMRPPEITGQVSLPPGKRTNLRKTGSERIAHGMRVKFNPLALLLDSSLEGEFDLVQRIIYEVDDPSLPNDEGITALHNAVCAGHTEIVKFLVQFGVNVNAADSDGWTPLHCAASCNNVQVCKFLVESGAAVFAMTYSDMQTAADKCEEMEEGYTQCSQFLYGVQEKMGIMNKGVIYALWDYEPQNDDELPMKEGDCMTIIHREDEDEIEWWWARLNDKEGYVPRNLLGLYPRIKPRQRSLA [TP53BP2]”, the “solubility in G1/S (log2)” value in data set [1] came to 0.0669. Besides, the melting temperature in data set [2] (cell cycle stage: G1/S) came to 48.9 °C; in data set [2] (cell cycle stage: mitosis), 48.5 °C. In addition, the “solubility change mitosis (log2)” value in data set [3] was -0.063. The thermal stability score in data set [4] (setting [5]) turned out to be 0.713; in data set [4] (cell cycle stage: mitosis), 1.28.
